Each block holds one sequence with its values, some of them ahead of it.
Tests used:
[1] = molecular target: HLA-B*46:01; experiment: IEDB peptide-MHC binding, purified MHC/competitive/fluorescence; filed as Kd, often an IC50 or EC50 that approximates it; ≥ and ≤ were set here for values at or beyond the usual limits of such assays; settings: source organism: Zaire ebolavirus
[2] = molecular target: HLA-A*02:01; experiment: as above
[3] = molecular target: HLA-B*39:01; experiment: as above
[4] = molecular target: HLA-B*57:01; experiment: as above; settings: source organism: Zaire ebolavirus
[5] = molecular target: HLA-A*69:01; experiment: as above; settings: source organism: Zaire ebolavirus
[6] = molecular target: HLA-B*51:01; experiment: as above; settings: source organism: Zaire ebolavirus
[7] = molecular target: HLA-B*15:01; experiment: as above; settings: source organism: Zaire ebolavirus
[8] = molecular target: HLA-A*26:01; experiment: as above; settings: source organism: Zaire ebolavirus
[9] = molecular target: HLA-B*15:17; experiment: as above; settings: source organism: Zaire ebolavirus
[10] = molecular target: HLA-B*27:03; experiment: as above; settings: source organism: Zaire ebolavirus
[11] = molecular target: HLA-A*03:01; experiment: IEDB peptide-MHC binding, purified MHC/direct/fluorescence; filed as Kd, often an IC50 or EC50 that approximates it; ≥ and ≤ were set here for values at or beyond the usual limits of such assays; settings: source organism: Zaire ebolavirus
[12] = molecular target: HLA-A*02:16; experiment: as above; settings: source organism: Zaire ebolavirus
[13] = molecular target: HLA-A*23:01; experiment: as above; settings: source organism: Zaire ebolavirus
[14] = molecular target: HLA-A*68:02; experiment: as above; settings: source organism: Zaire ebolavirus
[15] = molecular target: HLA-A*24:03; experiment: as above; settings: source organism: Zaire ebolavirus
[16] = molecular target: HLA-A*02:19; experiment: as above; settings: source organism: Zaire ebolavirus
[17] = molecular target: HLA-A*02:11; experiment: as above; settings: source organism: Zaire ebolavirus
[18] = molecular target: HLA-A*02:12; experiment: as above; settings: source organism: Zaire ebolavirus
[19] = molecular target: HLA-A*29:02; experiment: as above; settings: source organism: Zaire ebolavirus
[20] = molecular target: HLA-A*02:03; experiment: as above; settings: source organism: Zaire ebolavirus
[21] = molecular target: HLA-B*40:01; experiment: as above; settings: source organism: Sudan ebolavirus - Maleo (1979)
[22] = molecular target: HLA-C*07:02; experiment: as above
[23] = molecular target: HLA-A*02:01; experiment: IEDB peptide-MHC binding, purified MHC/competitive/fluorescence; ≥ and ≤ were set here for values at or beyond the usual limits of such assays; settings: source organism: Vaccinia virus Copenhagen
[24] = molecular target: HLA-B*08:01; experiment: as above
[25] = molecular target: HLA-C*12:03; experiment: IEDB peptide-MHC binding, purified MHC/direct/fluorescence; filed as Kd, often an IC50 or EC50 that approximates it; ≥ and ≤ were set here for values at or beyond the usual limits of such assays
[26] = molecular target: HLA-B*07:02; experiment: IEDB peptide-MHC binding, purified MHC/competitive/fluorescence; ≥ and ≤ were set here for values at or beyond the usual limits of such assays
[27] = molecular target: HLA-A*03:01; experiment: IEDB peptide-MHC binding, purified MHC/competitive/radioactivity; filed as Kd, often an IC50 or EC50 that approximates it; ≥ and ≤ were set here for values at or beyond the usual limits of such assays; settings: source organism: Vaccinia virus WR
[28] = molecular target: HLA-B*07:02; experiment: as above; settings: source organism: Vaccinia virus WR
[29] = molecular target: HLA-B*53:01; experiment: as above; settings: source organism: Vaccinia virus WR
[30] = molecular target: HLA-A*33:01; experiment: as above; settings: source organism: Vaccinia virus WR
[31] = molecular target: HLA-B*54:01; experiment: as above; settings: source organism: Vaccinia virus WR
[32] = molecular target: HLA-B*51:01; experiment: as above; settings: source organism: Vaccinia virus WR
[33] = molecular target: HLA-B*35:01; experiment: as above; settings: source organism: Vaccinia virus WR
[34] = molecular target: HLA-A*11:01; experiment: as above; settings: source organism: Vaccinia virus WR
[35] = molecular target: HLA-A*31:01; experiment: as above; settings: source organism: Vaccinia virus WR
[36] = molecular target: HLA-A*68:01; experiment: as above; settings: source organism: Vaccinia virus WR
[37] = molecular target: HLA-B*18:01; experiment: IEDB peptide-MHC binding, purified MHC/competitive/fluorescence; filed as Kd, often an IC50 or EC50 that approximates it; ≥ and ≤ were set here for values at or beyond the usual limits of such assays; settings: source organism: Zaire ebolavirus
[38] = molecular target: HLA-B*15:01; experiment: IEDB peptide-MHC binding, purified MHC/direct/fluorescence; filed as Kd, often an IC50 or EC50 that approximates it; ≥ and ≤ were set here for values at or beyond the usual limits of such assays; settings: source organism: Reston ebolavirus - Reston
[39] = molecular target: HLA-C*15:02; experiment: as above
[40] = molecular target: HLA-B*58:01; experiment: as above
[41] = molecular target: HLA-A*02:19; experiment: IEDB peptide-MHC binding, purified MHC/competitive/fluorescence; filed as Kd, often an IC50 or EC50 that approximates it; ≥ and ≤ were set here for values at or beyond the usual limits of such assays; settings: source organism: Toxoplasma gondii RH
[42] = molecular target: HLA-A*24:02; experiment: IEDB peptide-MHC binding, purified MHC/competitive/fluorescence; ≥ and ≤ were set here for values at or beyond the usual limits of such assays; settings: source organism: Zaire ebolavirus
[43] = molecular target: HLA-B*57:01; experiment: IEDB peptide-MHC binding, purified MHC/direct/fluorescence; filed as Kd, often an IC50 or EC50 that approximates it; ≥ and ≤ were set here for values at or beyond the usual limits of such assays; settings: source organism: Salmonella enterica
[44] = molecular target: HLA-B*15:17; experiment: as above; settings: source organism: Salmonella enterica subsp. enterica serovar Typhimurium
[45] = source organism: Zaire ebolavirus
[46] = source organism: Vaccinia virus Copenhagen
[47] = source organism: Bacillus anthracis str. A0488
[48] = source organism: Vaccinia virus L-IPV
[49] = source organism: Bacillus anthracis str. A2012

Sequence: DETFVHSGF
- Kd [1]: ≥ 20 µM
- Kd [2, 45]: ≥ 20 µM
- Kd [3, 45]: ≥ 20 µM
- Kd [4]: ≥ 20 µM
- Kd [5]: ≥ 20 µM
- Kd [6]: ≥ 20 µM
- Kd [7]: ≥ 20 µM
- Kd [8]: ≥ 20 µM
- Kd [9]: ≥ 20 µM
- Kd [10]: ≥ 20 µM
- Kd [11]: ≥ 20 µM
- Kd [12]: ≥ 20 µM
- Kd [13]: ≥ 20 µM
- Kd [14]: ≥ 20 µM
- Kd [15]: ≥ 20 µM
- Kd [16]: ≥ 20 µM
- Kd [17]: ≥ 20 µM
- Kd [18]: ≥ 20 µM
- Kd [19]: ≥ 20 µM
- Kd [20]: ≥ 20 µM
- Kd [21]: ≥ 20 µM

Sequence: ALPPRAFEL
- Kd ([22]; source organism: Mycobacterium tuberculosis F11): 0.085 µM

Sequence: FALKKLIID
- IC50 [23]: ≥ 161 µM
- IC50 [24, 46]: ≥ 211 µM

- Kd ([2]; source organism: Homo sapiens): 0.0145 µM
- Kd ([25]; source organism: Callithrix jacchus): ≤ 0.001 µM
Sequence: VAANIVLTV

Sequence: FRMTENVPL
- Kd [3, 47]: 0.0017 µM
- Kd [22, 47]: 0.048 µM

Sequence: SPRMLTPIN
- IC50 [26, 45]: 5.08 µM

Sequence: RLYDYFTRV
- Kd [2, 48]: 0.0039 µM
- Kd [25, 48]: 0.932 µM
- Kd [27]: ≥ 59.3 µM
- Kd [28]: 16.8 µM
- Kd [29]: ≥ 78.2 µM
- Kd [30]: ≥ 77.7 µM
- Kd [31]: ≥ 60.7 µM
- Kd [32]: ≥ 77.5 µM
- Kd [33]: ≥ 31.5 µM
- Kd [34]: 0.155 µM
- Kd [35]: 0.411 µM
- Kd [36]: ≥ 77.7 µM

Sequence: QPEWFRNIL
- IC50 ([26]; source organism: Influenza A virus (A/Oklahoma/309/2006(H3N2))): 0.188 µM

Sequence: WQQWDRQSL
- Kd [1]: ≥ 20 µM
- Kd [37]: ≥ 20 µM
- Kd [2, 45]: ≥ 20 µM
- Kd [4]: ≥ 20 µM
- Kd [5]: ≥ 20 µM
- Kd [6]: ≥ 20 µM
- Kd [8]: ≥ 20 µM
- Kd [9]: ≥ 20 µM
- Kd [10]: ≥ 20 µM
- Kd [11]: ≥ 20 µM
- Kd [12]: ≥ 20 µM
- Kd [13]: ≥ 20 µM
- Kd [14]: ≥ 20 µM
- Kd [38]: 0.127 µM
- Kd [15]: ≥ 20 µM
- Kd [16]: ≥ 20 µM
- Kd [17]: ≥ 20 µM
- Kd [18]: ≥ 20 µM
- Kd [19]: ≥ 20 µM
- Kd [20]: ≥ 20 µM

Sequence: VSARIAALF
- Kd ([39]; source organism: Mycobacterium tuberculosis H37Rv): 3.14 µM
- Kd ([40]; source organism: Mycobacterium tuberculosis): 0.036 µM

Sequence: YRSMIAFKL
- Kd ([22]; source organism: Entamoeba histolytica HM-1:IMSS): 0.045 µM

Sequence: TINDLKMML
- Kd [39, 46]: 0.043 µM

Sequence: FLIYFRSPL
- Kd [2, 49]: 0.0106 µM
- Kd [22, 49]: 1.44 µM

Sequence: SIFERIREA
- Kd ([2]; source organism: Toxoplasma gondii RH): 0.002 µM
- Kd [41]: 1.15 µM

Sequence: YPTAWQSVG
- IC50 [26, 45]: ≥ 174 µM
- IC50 [42]: ≥ 209 µM

Sequence: SLSKRERQL
- IC50 [26, 46]: 57.5 µM
- IC50 [24, 46]: ≥ 76.3 µM

Sequence: TTHHTIPLL
- Kd [43]: 4 µM
- Kd [44]: 0.0659 µM
- Kd ([39]; source organism: Salmonella enterica subsp. enterica serovar Typhi str. CT18): ≥ 20 µM
- Kd ([40]; source organism: Salmonella enterica subsp. enterica serovar Typhimurium): 3.24 µM

Sequence: NFHQKKNEI
- IC50 [42]: 8.08 µM
- IC50 [24, 45]: 66.1 µM

Sequence: DSRPQKIWM
- IC50 [24, 45]: ≥ 95.4 µM

Sequence: FEEMYRHIL
- IC50 [42]: 25.8 µM
- IC50 [24, 45]: ≥ 81.4 µM
